Measured values published in paper PMC4467374.
No end group written: not given here. Me3 = tri-methyl on lysine side chain

What was measured:
[1] = molecular target: tandem tudor domain (TTD) of UHRF1; assay: AlphaScreen or HTRF
[2] = molecular target: tandem tudor domain (TTD) of UHRF1; assay: fluorescence polarisation

Question: ARTK(Me3)QTARKSTGEW [H3K4me3 competition peptide (low affinity competitor)] was tested. Which IC50 [1] did it give?
Answer: 95 µM

Question: ARTKQTARKSTGEW (here or on the partner: trimethyl-lysine at K9) [H3K9me3 competition peptide (high affinity competitor)] was tested. Which IC50 [2] did it give?
Answer: 12 µM

Question: And the IC50 [1]?
Answer: 6 µM
